± gives the uncertainty stated by the source.
Assay: self-splicing fitness, log relative to wild type (ln ratio); higher = more splicing; Tetrahymena group I intron in knt gene, E. coli kanamycin selection, DiMSum; sequences stand for … in CUCUCU…GGAGGGAAAAGUUAUCAGGCAUGCACCUGGUAGCUAGUCUUUAAACCAAUAGAUUGCAUCGGUUUAAAAGGCAAGACCGUCAAAUUGCGGGAAAGGGGUCAACAGCCGUUCAGUACCAAGUCUCAGGGGAAACUUUGAGAUGGCCUUGCAAAGGGUAUGGUAAUAAGCUGACGGACAUGGUCCUAACCACGCAGCCAAGUCCUAAGUCAACAGAUCUUCUGUUGAUAUGGAUGCAGUUCACAGACUAAAUGUCGGUCGGGGAAGAUGUAUUCUUCUCAUAAGAUAUAGUCGGACCUCUCCUUAAUGGGAGCUAGCGGAUGAAGUGAUGCAACACUGGAGCCGCUGGGAACUAAUUUGUAUGCGAAAGUAUAUUGAUUAGUUUUGGAGUACUCGUGGUCG
Outline: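 Pooled colonies went to amplicon sequencing on an Illumina HiSeq 2500 after six replicate transformations. The plates were LB agar with 100 μg/mL carbenicillin, 50 μM IPTG and 0.2% rhamnose, with or without 25 μg/mL kanamycin, incubated overnight at 37°C or 30°C. The E. coli BL21(DE3) library had all eight P1ex-region intron nucleotides randomised, the intron placed in the knt kanamycin-resistance gene on pET-22b(+). DiMSum fitness is the error-weighted combination of replicate fold changes, kanamycin against none, normalised to wild type.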

Sequence	self-splicing fitness (ln) (30 °C)	self-splicing fitness (ln) (37 °C)
AAGGAGCAAUAUUACGAAAA	-2.9 ± 0.39	-1.84 ± 0.35
UAGCAGCAAUAUUACGCAGA	-1.67 ± 0.14	-1.33 ± 0.088
UUAUAGCAAUAUUACGGACU	-2.04 ± 0.35	-0.965 ± 0.23
UUGUAGCAAUAUUACGAUUG	-2.16 ± 0.15	-1.42 ± 0.2
AUCAAGCAAUAUUACGGAAC	-4.1 ± 0.15	-2.3 ± 0.12
GUUCAGCAAUAUUACGCAAU	-1.08 ± 0.16	-0.106 ± 0.19
AGGUAGCAAUAUUACGGCCU	-3.7 ± 0.04	-2.6 ± 0.053
CCCAAGCAAUAUUACGACAA	-3.14 ± 0.17	-3.12 ± 0.22
UAUUAGCAAUAUUACGUCCU	-1.69 ± 0.2	-0.635 ± 0.21
ACGGAGCAAUAUUACGAACU	-0.565 ± 0.11	-0.0683 ± 0.16
UUUGAGCAAUAUUACGCUGG	-2.04 ± 0.11	-2.01 ± 0.14
CUCGAGCAAUAUUACGGAUU	-3.59 ± 0.19	-2.98 ± 0.27
GUUAAGCAAUAUUACGAUAC	-1.34 ± 0.21	-0.951 ± 0.28
GCAGAGCAAUAUUACGCUAC		-1.68 ± 0.32
UUGCAGCAAUAUUACGUCGU	-1.8 ± 0.16	-1.17 ± 0.2
UAAUAGCAAUAUUACGAACU	-1.37 ± 0.14	-1.62 ± 0.17
GACAAGCAAUAUUACGUUGA	-2.14 ± 0.09	-1.48 ± 0.12
ACAAAGCAAUAUUACGGGAG	-1.72 ± 0.1	-1.08 ± 0.12
CUAUAGCAAUAUUACGUGAA	-4.01 ± 0.19	-2.51 ± 0.21
CGGGAGCAAUAUUACGUCGU	-3.3 ± 0.26	-2.35 ± 0.3
UCACAGCAAUAUUACGUUUG	-2.21 ± 0.08	-1.2 ± 0.11
GUUAAGCAAUAUUACGGGGA	-3.04 ± 0.37	-2.15 ± 0.47
CAACAGCAAUAUUACGACGA	-0.955 ± 0.075	0.0703 ± 0.084
CCAAAGCAAUAUUACGGGCA	-3.47 ± 0.19	-2.86 ± 0.2

Sequence	self-splicing fitness (ln) (30 °C)	self-splicing fitness (ln) (37 °C)
UACCAGCAAUAUUACGUUAC	-2.83 ± 0.3	-2.26 ± 0.21
ACUUAGCAAUAUUACGUGGC	-2.83 ± 0.16	-2.85 ± 0.29
GCUGAGCAAUAUUACGCGGC		-1.22 ± 0.41
AUCCAGCAAUAUUACGUGAU	-2.15 ± 0.1	-1.04 ± 0.12
GCGAAGCAAUAUUACGCACU	-1.72 ± 0.18	-0.633 ± 0.21
CAGUAGCAAUAUUACGCCUG	-2.42 ± 0.25	-2.46 ± 0.44
CGCGAGCAAUAUUACGAAAG	-2.75 ± 0.26	-1.65 ± 0.23
UGAGAGCAAUAUUACGGACG	-1.67 ± 0.28	-0.294 ± 0.41
GACCAGCAAUAUUACGUUAU	-0.752 ± 0.045	-0.147 ± 0.062
UAAUAGCAAUAUUACGAGAC	-3.38 ± 0.28	-2.03 ± 0.28
GAUUAGCAAUAUUACGCAUU	-2.53 ± 0.14	-2.25 ± 0.17
GCCAAGCAAUAUUACGCAUC	-0.673 ± 0.082	0.0458 ± 0.095
CCACAGCAAUAUUACGGUGC	-4.03 ± 0.19	-2.97 ± 0.2
CAGGAGCAAUAUUACGACGU	-3.17 ± 0.16	-2.13 ± 0.2
UCGAAGCAAUAUUACGCGAU	-3.31 ± 0.32	
CUUUAGCAAUAUUACGUGAG	-1.07 ± 0.11	-0.581 ± 0.14
UAGAAGCAAUAUUACGCGGU	-4.94 ± 0.42	-2.37 ± 0.24
UGUAAGCAAUAUUACGUGUU	-3.3 ± 0.15	-0.96 ± 0.12
CACGAGCAAUAUUACGGGAG	-3.53 ± 0.21	-2.37 ± 0.18
GGACAGCAAUAUUACGUGCA	-0.37 ± 0.085	-0.64 ± 0.09
CUAAAGCAAUAUUACGGUUG	-0.57 ± 0.056	-0.138 ± 0.081
CGAGAGCAAUAUUACGAGAA		-1.69 ± 0.43
GCCGAGCAAUAUUACGAGUC	-1.86 ± 0.14	-0.892 ± 0.16
UUUCAGCAAUAUUACGUACG	-0.905 ± 0.12	-0.18 ± 0.11

Sequence	self-splicing fitness (ln) (30 °C)	self-splicing fitness (ln) (37 °C)
UCUGAGCAAUAUUACGCUAG	-1.31 ± 0.17	-1.43 ± 0.19
AGUGAGCAAUAUUACGGUCC	-0.948 ± 0.12	-0.741 ± 0.15
GUGAAGCAAUAUUACGGGGC	-2.91 ± 0.23	-3.35 ± 0.35
UACGAGCAAUAUUACGCAAU	-3.04 ± 0.17	-2.65 ± 0.18
GGAUAGCAAUAUUACGCUAG	-2.26 ± 0.19	-1.21 ± 0.18
GGUCAGCAAUAUUACGGGUG	-1.3 ± 0.067	-0.637 ± 0.072
GCACAGCAAUAUUACGCCUU	-0.943 ± 0.092	-0.623 ± 0.087
UCGAAGCAAUAUUACGCACG	-1.8 ± 0.14	-0.85 ± 0.14
AUAAAGCAAUAUUACGUUAA	-1.62 ± 0.087	-1.16 ± 0.12
AAUAAGCAAUAUUACGCAUU	-2.97 ± 0.21	-2.56 ± 0.28
CCAGAGCAAUAUUACGCACG	-2.06 ± 0.22	0.34 ± 0.17
UCAAAGCAAUAUUACGGGUA	-0.981 ± 0.096	0.505 ± 0.093
GGGGAGCAAUAUUACGGGAU	-3.44 ± 0.32	-1.51 ± 0.22
UCCGAGCAAUAUUACGCAAG	-3.27 ± 0.26	-1.77 ± 0.32
GCGGAGCAAUAUUACGACGU	-4.57 ± 0.46	-2.5 ± 0.3
CGUUAGCAAUAUUACGUUCA	-0.69 ± 0.078	-0.192 ± 0.083
CCCUAGCAAUAUUACGUACU	-2.78 ± 0.14	-2.65 ± 0.23
CGUUAGCAAUAUUACGGAGG	-1.43 ± 0.12	-1.01 ± 0.11
UAAUAGCAAUAUUACGGGUG	-1.9 ± 0.096	-0.875 ± 0.094
CGUGAGCAAUAUUACGUGCU	-3.78 ± 0.29	-2.97 ± 0.34
GGAUAGCAAUAUUACGGUAG		-3.74 ± 0.34
GCAUAGCAAUAUUACGUCCC	-1.38 ± 0.22	0.182 ± 0.21
GUGAAGCAAUAUUACGUUAA	-2.09 ± 0.12	-1.74 ± 0.14
GCGGAGCAAUAUUACGUGUC	-2.84 ± 0.3	-1.06 ± 0.43

Sequence	self-splicing fitness (ln) (30 °C)	self-splicing fitness (ln) (37 °C)
CGUUAGCAAUAUUACGACCG	-1.13 ± 0.14	-0.193 ± 0.2
AUAGAGCAAUAUUACGCUAG	-1.01 ± 0.15	-0.475 ± 0.15
AUGAAGCAAUAUUACGCUUC	-1.79 ± 0.15	-2.99 ± 0.41
UAUCAGCAAUAUUACGAGUG	-0.353 ± 0.058	-0.197 ± 0.072
CAGUAGCAAUAUUACGAUUG	-1.73 ± 0.083	-0.648 ± 0.11
UGAUAGCAAUAUUACGUCAU	-3.03 ± 0.27	-2.16 ± 0.2
UAUUAGCAAUAUUACGGCUU	-1.35 ± 0.13	-0.478 ± 0.17
CUAGAGCAAUAUUACGAAAC	-3.57 ± 0.31	-2.41 ± 0.39
ACCGAGCAAUAUUACGAGGU	-2.42 ± 0.23	-0.758 ± 0.2
GCUUAGCAAUAUUACGAAAC	-1.22 ± 0.16	-0.448 ± 0.24
GGCCAGCAAUAUUACGGGGA	-0.876 ± 0.068	-0.469 ± 0.073
AGGUAGCAAUAUUACGGCUU	-0.489 ± 0.015	-0.184 ± 0.034
CUAUAGCAAUAUUACGUCAG	-1.75 ± 0.11	-0.591 ± 0.12
CCCUAGCAAUAUUACGUGGA	-1.42 ± 0.094	-0.882 ± 0.093
ACGGAGCAAUAUUACGUCCA	-3.19 ± 0.17	-0.993 ± 0.15
GUUCAGCAAUAUUACGCUCC	-0.282 ± 0.15	-0.544 ± 0.23
UAAAAGCAAUAUUACGUAUG	-1.07 ± 0.078	-0.324 ± 0.095
ACCUAGCAAUAUUACGCGGC	-3.53 ± 0.33	-1.38 ± 0.17
UUGGAGCAAUAUUACGAGUG	-4.05 ± 0.33	-3.04 ± 0.24
CAAGAGCAAUAUUACGGUUU	-3.5 ± 0.18	-2.33 ± 0.2
UGCUAGCAAUAUUACGUAUU	-3.06 ± 0.18	-1.72 ± 0.24
GGCCAGCAAUAUUACGCCGU	-2.39 ± 0.22	-1.48 ± 0.19
CAAUAGCAAUAUUACGGGAC	-2.83 ± 0.34	-2.63 ± 0.27
GUUCAGCAAUAUUACGAGUG	-1.59 ± 0.18	-0.332 ± 0.14
